± gives the standard deviation of the averaged measurements.
Assay: total protein half-life in vivo (active degradation + dilution); higher = more stable protein
[1] = E. coli NCM3722 delta-clpP delta-lon delta-hslV, growth: N-lim chemostat, doubling time 6 h
[2] = E. coli NCM3722 delta-clpP, growth: N-lim chemostat, doubling time 6 h
[3] = E. coli NCM3722 delta-hslV, growth: N-lim chemostat, doubling time 6 h
[4] = E. coli NCM3722 delta-lon, growth: N-lim chemostat, doubling time 6 h
[5] = E. coli NCM3722 delta-smpB, growth: N-lim chemostat, doubling time 6 h
[6] = wild type E. coli NCM3722, growth: C-lim chemostat, doubling time 3 h
[7] = wild type E. coli NCM3722, growth: C-lim chemostat, doubling time 6 h
[8] = wild type E. coli NCM3722, growth: C-lim chemostat, doubling time 12 h
[9] = wild type E. coli NCM3722, growth: N-lim chemostat, doubling time 6 h
[10] = wild type E. coli NCM3722, growth: N-lim chemostat, doubling time 12 h
[11] = wild type E. coli NCM3722, growth: P-lim chemostat, doubling time 6 h
[12] = wild type E. coli NCM3722, growth: P-lim chemostat, doubling time 12 h

Sequence	total protein half-life in vivo [1] [h]	total protein half-life in vivo [2] [h]	total protein half-life in vivo [3] [h]	total protein half-life in vivo [4] [h]	total protein half-life in vivo [5] [h]	total protein half-life in vivo [6] [h]	total protein half-life in vivo [7] [h]	total protein half-life in vivo [8] [h]	total protein half-life in vivo [9] [h]	total protein half-life in vivo [10] [h]	total protein half-life in vivo [11] [h]	total protein half-life in vivo [12] [h]
MYPVDLHMHTVASTHAYSTLSDYIAQAKQKGIKLFAITDHGPDMEDAPHHWHFINMRIWPRVVDGVGILRGIEANIKNVDGEIDCSGKMFDSLDLIIAGFHEPVFAPHDKATNTQAMIATIASGNVHIISHPGNPKYEIDVKAVAEAAAKHQVALEINNSSFLHSRKGSEDNCREVAAAVRDAGGWVALGSDSHTAFTMGEFEECLKILDAVDFPPERILNVSPRRLLNFLESRGMAPIAEFADL	4.97 ± 0.41	4.01 ± 0.17	3.945 ± 0.0077	4.67 ± 0.18	3.925 ± 0.00062	3.11 ± 0.53	4.99 ± 0.23	9.55 ± 1.1	4.04 ± 0.4	6.47 ± 0.46	5.73 ± 0.19	11.9 ± 0.49
MSSNTFTLGTKSVNRLGYGAMQLAGPGVFGPPRDRHVAITVLREALALGVNHIDTSDFYGPHVTNQIIREALYPYSDDLTIVTKIGARRGEDASWLPAFSPAELQKAVHDNLRNLGLDVLDVVNLRVMMGDGHGPAEGSIEASLTVLAEMQQQGLVKHIGLSNVTPTQVAEARKIAEIVCVQNEYNIAHRADDAMIDALAHDGIAYVPFFPLGGFTPLQSSTLSDVAASLGATPMQVALAWLLQRSPNILLIPGTSSVAHLRENMAAEKLHLSEEVLSTLDGISRE	5.35 ± 0.76	4.8 ± 0.14	4.87	4.74 ± 1	4.18 ± 0.88	3.27 ± 0.3	5.527 ± 0.039	10.8 ± 0.75	5.01	8.77	6.443 ± 0.061	12.2 ± 0.21
MNTISSLETTDLPAAYHIEQRAHAFPWSEKTFASNQGERYLNFQLTQNGKMAAFAITQVVLDEATLFNIAVDPDYQRQGLGRALLEHLIDELEKRGVATLWLEVRASNAAAIALYESLGFNEATIRRNYYPTTDGREDAIIMALPISM [P0A944]	5.64	4.51		4.5 ± 0.79	3.85	> 4		15.9	3.845 ± 0.034	6.18	4.53	8.18
MWIGIISLFPEMFRAITDYGVTGRAVKNGLLSIQSWSPRDFTHDRHRTVDDRPYGGGPGMLMMVQPLRDAIHAAKAAAGEGAKVIYLSPQGRKLDQAGVSELATNQKLILVCGRYEGIDERVIQTEIDEEWSIGDYVLSGGELPAMTLIDSVSRFIPGVLGHEASATEDSFAEGLLDCPHYTRPEVLEGMEVPPVLLSGNHAEIRRWRLKQSLGRTWLRRPELLENLALTEEQARLLAEFKTEHAQQQHKHDGMA [P0A873]	4.44 ± 1.1	4.01 ± 0.084	4.21 ± 0.043	4.7 ± 0.54	4.21 ± 0.33	3.04 ± 0.49	5.88 ± 0.59	8.46 ± 1.3	4.25 ± 0.34	7.45 ± 0.68	5.85 ± 0.19	10.4 ± 0.29
MEQSVANLVDMRDVSFTRGNRCIFDNISLTVPRGKITAIMGPSGIGKTTLLRLIGGQIAPDHGEILFDGENIPAMSRSRLYTVRKRMSMLFQSGALFTDMNVFDNVAYPLREHTQLPAPLLHSTVMMKLEAVGLRGAAKLMPSELSGGMARRAALARAIALEPDLIMFDEPFVGQDPITMGVLVKLISELNSALGVTCVVVSHDVPEVLSIADHAWILADKKIVAHGSAQALQANPDPRVRQFLDGIADGPVPFRYPAGDYHADLLPGS	6.3 ± 0.54	6.19 ± 0.062			5.79 ± 0.68	3.08 ± 0.07	7.05 ± 1.1	12.3 ± 2	6.18 ± 0.23	> 16	7.04 ± 0.68	14.1 ± 0.78
MTDNTRLRIAMQKSGRLSDDSRELLARCGIKINLHTQRLIAMAENMPIDILRVRDDDIPGLVMDGVVDLGIIGENVLEEELLNRRAQGEDPRYFTLRRLDFGGCRLSLATPVDEAWDGPLSLNGKRIATSYPHLLKRYLDQKGISFKSCLLNGSVEVAPRAGLADAICDLVSTGATLEANGLREVEVIYRSKACLIQRDGEMEESKQQLIDKLLTRIQGVIQARESKYIMMHAPTERLDEVIALLPGAERPTILPLAGDQQRVAMHMVSSETLFWETMEKLKALGASSILVLPIEKMME	3.9 ± 1	2.97 ± 0.12	3.093 ± 0.014	5.11 ± 1.9	3.38 ± 0.042	2.99 ± 0.52	4.94 ± 0.53	7.58 ± 0.31	3.29 ± 0.1	4.73 ± 0.14	5.32 ± 0.63	11.2 ± 0.66
MLTRLREIVEKVASAPRLNEALNILVTDICLAMDTEVCSVYLADHDRRCYYLMATRGLKKPRGRTVTLAFDEGIVGLVGRLAEPINLADAQKHPSFKYIPSVKEERFRAFLGVPIIQRRQLLGVLVVQQRELRQYDESEESFLVTLATQMAAILSQSQLTALFGQYRQTRIRALPAAPGVAIAEGWQDATLPLMEQVYQASTLDPALERERLTGALEEAANEFRRYSKRFAAGAQKETAAIFDLYSHLLSDTRLRRELFAEVDKGSVAEWAVKTVIEKFAEQFAALSDNYLKERAGDLRALGQRLLFHLDDANQGPNAWPERFILVADELSATTLAELPQDRLVGVVVRDGAANSHAAIMVRALGIPTVMGADIQPSVLHRRTLIVDGYRGELLVDPEPVLLQEYQRLISEEIELSRLAEDDVNLPAQLKSGERIKVMLNAGLSPEHEEKLGSRIDGIGLYRTEIPFMLQSGFPSEEEQVAQYQGMLQMFNDKPVTLRTLDVGADKQLPYMPISEENPCLGWRGIRITLDQPEIFLIQVRAMLRANAATGNLNILLPMVTSLDEVDEARRLIERAGREVEEMIGYEIPKPRIGIMLEVPSMVFMLPHLAKRVDFISVGTNDLTQYILAVDRNNTRVANIYDSLHPAMLRALAMIAREAEIHGIDLRLCGEMAGDPMCVAILIGLGYRHLSMNGRSVARAKYLLRRIDYAEAENLAQRSLEAQLATEVRHQVAAFMERRGMGGLIRGGL	5.82 ± 0.99	5.146 ± 0.0092	4.39 ± 0.15	4.53 ± 0.17	4.44 ± 0.084	3.06 ± 0.15	5.78 ± 0.21	10.7 ± 0.17	4.37 ± 0.11	7.03 ± 0.12	6.54 ± 0.36	11.5 ± 1.8
MAMYQNMLVVIDPNQDDQPALRRAVYLHQRIGGKIKAFLPIYDFSYEMTTLLSPDERTAMRQGVISQRTAWIHEQAKYYLNAGVPIEIKVVWHNRPFEAIIQEVISGGHDLVLKMAHQHDRLEAVIFTPTDWHLLRKCPSPVWMVKDQPWPEGGKALVAVNLASEEPYHNALNEKLVKETIELAEQVNHTEVHLVGAYPVTPINIAIELPEFDPSVYNDAIRGQHLLAMKALRQKFGINENMTHVEKGLPEEVIPDLAEHLQAGIVVLGTVGRTGISAAFLGNTAEQVIDHLRCDLLVIKPDQYQTPVELDDEEDD [P0AAC0]	4.78 ± 0.088	4.77 ± 0.46	4.73 ± 0.4	5.473 ± 0.017	4.47 ± 0.11	2.97 ± 0.39	5.6 ± 0.071	9.86 ± 0.44	5.01 ± 0.17	8.64 ± 0.4	5.56 ± 0.67	12.2 ± 0.15
MTTQTVSGRRYFTKAWLMEQKSLIALLVLIAIVSTLSPNFFTINNLFNILQQTSVNAIMAVGMTLVILTSGIDLSVGSLLALTGAVAASIVGIEVNALVAVAAALALGAAIGAVTGVIVAKGRVQAFIATLVMMLLLRGVTMVYTNGSPVNTGFTENADLFGWFGIGRPLGVPTPVWIMGIVFLAAWYMLHHTRLGRYIYALGGNEAATRLSGINVNKIKIIVYSLCGLLASLAGIIEVARLSSAQPTAGTGYELDAIAAVVLGGTSLAGGKGRIVGTLIGALILGFLNNGLNLLGVSSYYQMIVKAVVILLAVLVDNKKQ [P0AGI1]	6.66 ± 0.66	6.38 ± 1.3	5.86 ± 0.5	5.86 ± 0.38	6.072 ± 0.021	2.957 ± 0.015	5.74 ± 0.19	12.5 ± 2.2	6.28 ± 0.51	10.5 ± 3.5	5.48 ± 0.19	13.2 ± 1.3
MYLSKVIIARAWSRDLYQLHQGLWHLFPNRPDAARDFLFHVEKRNTPEGCHVLLQSAQMPVSTAVATVIKTKQVEFQLQVGVPLYFRLRANPIKTILDNQKRLDSKGNIKRCRVPLIKEAEQIAWLQRKLGNAARVEDVHPISERPQYFSGDGKSGKIQTVCFEGVLTINDAPALIDLVQQGIGPAKSMGCGLLSLAPL	5.96 ± 0.57					1.61						
MELYREYPAWLIFLRRTYAVAAGVLALPFMLFWKDRARFYSYLHRVWSKTSDKPVWMDQAEKATGDFY [P0AAU2]	2.55 ± 0.61				1.38 ± 0.15			3.9	2.33	3.85	0.733	3.35 ± 1.6
MKPLLDVLMILDALEKEGSFAAASAKLYKTPSALSYTVHKLESDLNIQLLDRSGHRAKFTRTGKMLLEKGREVLHTVRELEKQAIKLHEGWENELVIGVDDTFPFSLLAPLIEAFYQHHSVTRLKFINGVLGGSWDALTQGRADIIVGAMHEPPSSSEFGFSRLGDLEQVFAVAPHHPLALEEEPLNRRIIKRYRAIVVGDTAQAGASTASQLLDEQEAITVFDFKTKLELQISGLGCGYLPRYLAQRFLDSGALIEKKVVAQTLFEPVWIGWNEQTAGLASGWWRDEILANSAIAGVYAKSDDGKSAI	5.91 ± 0.24											
MRNTLIPILVAICLFITGVAILNIQLWYSAKAEYLAGARYAANNINHILEEASQATQTAVNIAGKECNLEEQYQLGTEAALKPHLRTIIILKQGIVWCTSLPGNRVLLSRIPVFPDSNLLLAPAIDTVNRLPILLYQNQFADTRILVTISDQHIRGALNVPLKGVRYVLRVADDIIGPTGDVMTLNGHYPYTEKVHSTKYHFTIIFNPPPLFSFYRLIDKGFGILIFILLIACAAAFLLDRYFNKSATPEEILRRAINNGEIVPFYQPVVNGREGTLRGVEVLARWKQPHGGYISPAAFIPLAEKSGLIVPLTQSLMNQVARQMNAIASKLPEGFHIGINFSASHIISPTFVDECLNFRDSFTRRDLNLVLEVTEREPLNVDESLVQRLNILHENGFVIALDDFGTGYSGLSYLHDLHIDYIKIDHSFVGRVNADPESTRILDCVLDLARKLSISIVAEGVETKEQLDYLNQNYITFQQGYYFYKPVTYIDLVKIILSKPKVKVVVE	3.79			4.37	6.19 ± 0.68				4.59	11.9 ± 0.31		
MSDMNNPADDNNGAMDDLWAEALSEQKSTSSKSAAETVFQQFGGGDVSGTLQDIDLIMDIPVKLTVELGRTRMTIKELLRLTQGSVVALDGLAGEPLDILINGYLIAQGEVVVVADKYGVRITDIITPSERMRRLSR	5.45 ± 0.45				> 8	2.75 ± 0.5	4.23 ± 0.055	7.08 ± 1.4				
MGLFNFVKDAGEKLWDAVTGQHDKDDQAKKVQEHLNKTGIPDADKVNIQIADGKATVTGDGLSQEAKEKILVAVGNISGIASVDDQVKTATPATASQFYTVKSGDTLSAISKQVYGNANLYNKIFEANKPMLKSPDKIYPGQVLRIPEE [P0ADE6]	6.19 ± 0.023	5.8 ± 0.83	5.979 ± 0.053	6.34 ± 0.072	5.3 ± 0.33	3.18 ± 0.085	5.55 ± 0.29	9.85 ± 1.1	4.67 ± 0.066	9.41 ± 1.2	5.21 ± 0.41	11.7 ± 0.15
MSEFDAQRVAERIDIVLDILVAGDYHSAIHNLEILKAELLRQVAESTPDIPKAPWEI [A5A614]	> 8				2.71		3.77 ± 0.23				3.58	
MTTRQHSSFAIVFILGLLAMLMPLSIDMYLPALPVISAQFGVPAGSTQMTLSTYILGFALGQLIYGPMADSFGRKPVVLGGTLVFAAAAVACALANTIDQLIVMRFFHGLAAAAASVVINALMRDIYPKEEFSRMMSFVMLVTTIAPLMAPIVGGWVLVWLSWHYIFWILALAAILASAMIFFLIKETLPPERRQPFHIRTTIGNFAALFRHKRVLSYMLASGFSFAGMFSFLSAGPFVYIEINHVAPENFGYYFALNIVFLFVMTIFNSRFVRRIGALNMFRSGLWIQFIMAAWMVISALLGLGFWSLVVGVAAFVGCVSMVSSNAMAVILDEFPHMAGTASSLAGTFRFGIGAIVGALLSLATFNSAWPMIWSIAFCATSSILFCLYASRPKKR	7.89										6.0641 ± 0.0035	11.8

Reference: the supplement of paper PMC11246515
